Where no end group is shown, it is not given here.
B1: 16AA C-CSNAP peptide, C-terminally biotinylated (peptide)
peptide: DFFNDFEDLFDDDDIQ-biotin
B2: D42E C-CSNAP peptide, C-terminally biotinylated (peptide)
peptide: EFFNDFEDLFDDDDIQ-biotin
B3: 20AA C-CSNAP peptide, C-terminally biotinylated (peptide)
peptide: AVHADFFNDFEDLFDDDDIQ-biotin
B4: full-length CSNAP, C-terminally biotinylated (natural protein)
chain: MKPAVDEMFPEGAGPYVDLDEAGGSTGLLMDLAANEKAVHADFFNDFEDLFDDDDIQ-biotin

The binders below were run against T1, recombinant CSN^ΔCSNAP complex (UniProt Q13098 1-491; Q9UNS2 1-423; Q92905 1-334; Q99627 2-209) (assay: SPR).
In the case of B1, the koff is reported as 0.0014 s⁻¹. With B2 the koff was 0.0027 s⁻¹. Work on B3 yielded a koff of 0.001 s⁻¹. Binder B4 has a koff of 0.00016 s⁻¹.

Target: T1, recombinant CSN^ΔCSNAP complex
Test: SPR
Remark: another data set of the same source
B1 gave a Kd of 0.4 nM. For B2, the Kd was 2.5 nM. For B3, the Kd was 0.41 nM. In the case of B4, the Kd is reported as 0.068 nM.

Source: PMC10355216 (2023)
